Laboratory results published in the RNAGym collection of RNA variant scans (doi:10.1021/acssynbio.7b00057).

B1: Pistol ribozyme (parent)
chain: GGGUCGUUGUUCCAUAAUCGCGUGGAUAUGGCACGCAAGUUUCUACCGGGCACCGUAAAUGUCCGACUGGAGCCGUUCGGGCGGCUAUAAACAGACCUCAGGCCCGAAGCGUGGCGGCACCUGCCGCCGGUGGUAAAAAAGAUCGGAAGAGCACACGUCU

Variants of: B1
Assay: aptazyme ON/OFF ratio, guanine; higher = stronger switching; co-transcriptional cleavage with and without guanine

Going from U7A U8G G9A U10A C12A C13A to U8C G9A U10A U11C C12A C13A, the “aptazyme ON/OFF ratio” value falls from 1.27 to 1.17.

First: U7C U8A G9C U10A C12A C13A
Second: U7A U8C G9U U10G C12U C13U
The “aptazyme ON/OFF ratio” value of the first is higher: 1.26 for the first, 1.14 for the second.

First: U7C G9A U10C U11G C12U C13G
Second: U7G U8C G9U U10C U11G C12A C13A
The “aptazyme ON/OFF ratio” value of the first is higher: 1.34 for the first, 1.18 for the second.

Compared with U7G U8A G9U U11A C12G C13G, U7A U8G U10G C12U C13U is higher in “aptazyme ON/OFF ratio” value: 1.06 for the first, 1.26 for the second.

First: U7G U8G G9A U10G C12G
Second: U7G U8A G9C U10G U11A C12G C13U
The “aptazyme ON/OFF ratio” value of the first is higher: 1.28 for the first, 1.07 for the second.

Compared with U7C U8G G9U U11G C13U, U7C U8A G9C U10C U11G is lower in “aptazyme ON/OFF ratio” value: 1.21 for the first, 0.891 for the second.

Compared with U7A U8G G9A U10A C12U C13A, U10A U11C C12U C13U is lower in “aptazyme ON/OFF ratio” value: 1.38 for the first, 1.03 for the second.

First: U7A U8A G9U U11A C12U C13G
Second: U8A G9U U10A U11A C12A C13A
The “aptazyme ON/OFF ratio” value of the first is higher: 1.23 for the first, 1.16 for the second.

Going from U7G G9U U10A U11C C12A C13G to U7C U8A U11A C13G, the “aptazyme ON/OFF ratio” value falls from 1.21 to 1.08.

Going from U7G U8A G9C U10G U11A C13A to U8A G9U U10G U11C C12G C13A, the “aptazyme ON/OFF ratio” value rises from 1.05 to 1.08.

First: U7G U8G G9U U10A C12U C13U
Second: U8C G9A U10G U11A C12U C13A
The “aptazyme ON/OFF ratio” value of the first is lower: 1.06 for the first, 1.1 for the second.

Compared with U7C U8G G9U U10A U11A, U7G C13U is lower in “aptazyme ON/OFF ratio” value: 1.34 for the first, 1.09 for the second.

Compared with U8A G9C U10A U11A C12U, U7C U8A G9A U11G C12G is lower in “aptazyme ON/OFF ratio” value: 1.24 for the first, 1.12 for the second.

First: U8A G9U U10C U11C C12G
Second: C12A C13U
The “aptazyme ON/OFF ratio” value of the first is lower: 1.03 for the first, 1.9 for the second.

Compared with U7C G9U U10G U11C C12G, U7G G9U U10G U11A C12A C13U is higher in “aptazyme ON/OFF ratio” value: 1.09 for the first, 1.16 for the second.

U7A G9C U10A C12G C13A and U7G U8C G9C U11A C12G C13A are the same in “aptazyme ON/OFF ratio” value: 1.13 for the first, 1.13 for the second.

Compared with U7C U10A U11A C12G C13A, U7A U8C G9C U10A C13A is lower in “aptazyme ON/OFF ratio” value: 1.11 for the first, 1.09 for the second.

Compared with U7G U8A G9U C12G, U7C C13U is higher in “aptazyme ON/OFF ratio” value: 1.1 for the first, 1.18 for the second.

Going from U8G G9C U11G C13U to U7A U8C U10G U11G C13A, the “aptazyme ON/OFF ratio” value rises from 1.06 to 1.2.

Going from U8C G9C U10A U11G to U7C U8G G9A U10C U11A C13U, the “aptazyme ON/OFF ratio” value falls from 1.16 to 1.09.

Going from U7G U8A G9U U10A U11C to U7C U8C G9A U11C C13U, the “aptazyme ON/OFF ratio” value rises from 1.03 to 1.29.

Going from U7C U10A U11A C12U to U7C U8C G9U U11C, the “aptazyme ON/OFF ratio” value falls from 1.2 to 1.1.

Compared with U7A U8C G9A U10C C12U C13G, U7C G9C U10C U11A C13A is lower in “aptazyme ON/OFF ratio” value: 1.1 for the first, 1.09 for the second.

Going from U7G U8G G9A U10C U11C C12U C13U to U7G U8C G9U C12U C13U, the “aptazyme ON/OFF ratio” value rises from 1.13 to 1.41.

Compared with U7G U10C U11A C12G, U7C G9U U11G C12A is lower in “aptazyme ON/OFF ratio” value: 1.18 for the first, 1.09 for the second.

Going from U7G U8G G9A U10A U11G C12G C13U to U7A U8G G9U U10A U11C C12G, the “aptazyme ON/OFF ratio” value rises from 1.06 to 1.43.

Going from U7C U8C G9C U10C U11A C12G to U8A U10A C12A C13U, the “aptazyme ON/OFF ratio” value rises from 1.11 to 1.18.

Compared with U7A U8C G9A U11G C12G, U7A U8A G9C U10A U11G C12G C13G is higher in “aptazyme ON/OFF ratio” value: 1.24 for the first, 1.25 for the second.

Compared with U7A U8A G9U U11A C13U, U7G U10C U11G C13G is lower in “aptazyme ON/OFF ratio” value: 1.26 for the first, 1.09 for the second.

First: U7G U8G G9U U10C U11G C12A C13U
Second: U7G U8G G9A U10C U11G C12U
The “aptazyme ON/OFF ratio” value of the first is lower: 1.28 for the first, 1.34 for the second.

First: U7G U8A G9A U11A C13U
Second: U7A U10A U11C C13A
The “aptazyme ON/OFF ratio” value of the first is higher: 1.12 for the first, 1.02 for the second.

First: U7C U8G U10C C12A C13A
Second: U7G U8G U10G U11C C13A
The “aptazyme ON/OFF ratio” value of the first is higher: 1.28 for the first, 1.02 for the second.

U7C U8G G9A U10A U11A C12G and U7G U8C G9C U10A U11A C12G C13A are the same in “aptazyme ON/OFF ratio” value: 1.1 for the first, 1.1 for the second.

Going from U7C U8C G9U U10C U11A C12A C13G to U7A G9A U11G C13U, the “aptazyme ON/OFF ratio” value rises from 1.17 to 1.38.

Going from U8A U11A C12G C13G to U8G U10G C12U, the “aptazyme ON/OFF ratio” value rises from 1.06 to 1.15.

Compared with U7G U8G G9C U10A C12A, U7G U8G G9A C13A is higher in “aptazyme ON/OFF ratio” value: 1.03 for the first, 1.5 for the second.

First: U8G G9C U10G C12G C13U
Second: U7C U8G U10C U11C C12G
The “aptazyme ON/OFF ratio” value of the first is lower: 1.17 for the first, 1.41 for the second.

Going from U7C U8C U10G U11C C12A C13A to U7A U8C U10A U11G C13G, the “aptazyme ON/OFF ratio” value rises from 1.16 to 1.24.

Going from U8G G9U C12A C13A to U7A U8A G9C U10C U11G C12G C13A, the “aptazyme ON/OFF ratio” value falls from 1.41 to 1.1.

Compared with U7A U8A G9C U10C C12U C13A, U7C U8A G9U U11A C12U C13G is higher in “aptazyme ON/OFF ratio” value: 1.02 for the first, 1.23 for the second.

Compared with U8A G9A U10G U11G C12G, U7G U8G U11A C12U C13G is higher in “aptazyme ON/OFF ratio” value: 1.26 for the first, 1.36 for the second.

First: U7A U8G G9C U10C U11G C12A C13U
Second: U8A U10G U11C C13G
The “aptazyme ON/OFF ratio” value of the first is lower: 1.06 for the first, 1.11 for the second.
